Where a chain is given by its changes, count along the chain named. No end group written: not given here.
B1: GFR-binding compound of SEQ ID NO: 88 (peptide)
peptide: APTKLEPLTIVYYDDSSNVIEQLSNNMVVR
modifications: not fully specified
B2: GFR-binding compound of SEQ ID NO: 77 (peptide)
peptide: APTQLSAISTLYLEIVRKKPLKNYQFLQHNK
modifications: not fully specified
B3: GFR-binding compound of SEQ ID NO: 92 (peptide)
peptide: VPEKMSSLSILFFDENKNAALKVYPNMTVE
modifications: not fully specified
B4: GFR-binding compound of SEQ ID NO: 86 (peptide)
peptide: APTKLEPLPMVYYEERRNVIEQLSNNMVVR
modifications: not fully specified
B5: GFR-binding compound of SEQ ID NO: 76 (peptide)
peptide: TPTKMSPINMLYFNEKNNIIYGKIPGMVVD
modifications: not fully specified
B6: GFR-binding compound of SEQ ID NO: 95 (peptide)
peptide: RNVQCRPTQLEPLPIVYYEIVRKKPEQLSNTLE
modifications: not fully specified
B7: GFR-binding compound of SEQ ID NO: 80 (peptide)
peptide: ASASPSSVPQDLEPLTILYYVGRTPKVEQLSNMVEDH
modifications: not fully specified
B8: GFR-binding compound of SEQ ID NO: 85 (peptide)
peptide: VPQALSPISILFIRLKPHQGHLGEMSNMVVR
modifications: not fully specified
B9: GFR-binding compound of SEQ ID NO: 87 (peptide)
peptide: VPTKLSAISTLYLDLAREEPLKNYQEMVVE
modifications: not fully specified
B10: GFR-binding compound of SEQ ID NO: 65 (peptide)
peptide: ASASPSSVPQDLEPLTILYYVGRTPKVEQLSNMV
modifications: not fully specified
B11: GFR-binding compound of SEQ ID NO: 72 (peptide)
peptide: VPQALNAISTLYFDDSSNVILKKYRNMAVS
modifications: not fully specified
B12: GFR-binding compound of SEQ ID NO: 74 (peptide)
peptide: VPARLSPISILYIDAANNVVYKQYEDM
modifications: not fully specified
B13: GFR-binding compound of SEQ ID NO: 84 (peptide)
peptide: VPTEESNITTQIMRIKPHQGQHIGEMSFLQH
modifications: not fully specified
B14: GFR-binding compound of SEQ ID NO: 69 (peptide)
peptide: B13 peptide
modifications: not fully specified
B15: GFR-binding compound of SEQ ID NO: 73 (peptide)
peptide: VPEKMSSLSILFFDENKNVVLKVYPNMAVS
modifications: not fully specified
B16: GFR-binding compound of SEQ ID NO: 70 (peptide)
peptide: VPTELSPISILFIRIKPHQGHLGEMSAAVVE
modifications: not fully specified
B17: GFR-binding compound of SEQ ID NO: 93 (peptide)
peptide: VPARLSPISILYIDAANNVVYKQYEDMVKS
modifications: not fully specified
B18: GFR-binding compound of SEQ ID NO: 96 (peptide)
peptide: VPTHHSAISTLYLELAGEKPLKNYQFLQHNK
modifications: not fully specified
B19: GFR-binding compound of SEQ ID NO: 90 (peptide)
peptide: VPTELSPISILFIVGGKPKVYKQYENMVVE
modifications: not fully specified
B20: GFR-binding compound of SEQ ID NO: 94 (peptide)
peptide: TPTKMSPINMLYFNEKNNIIYGKIPGM
modifications: not fully specified
B21: GFR-binding compound of SEQ ID NO: 97 (peptide)
peptide: VPTHHSAISMLYLELGGDKPLENYQFLQ
modifications: not fully specified
B22: GFR-binding compound of SEQ ID NO: 82 (peptide)
peptide: VPTKLSPISILYIDKMGVPTYKQYEEGMSVAE
modifications: not fully specified
B23: GFR-binding compound of SEQ ID NO: 83 (peptide)
peptide: B22 peptide with T3A, K4R, K15E
modifications: not fully specified
B24: GFR-binding compound of SEQ ID NO: 68 (peptide)
peptide: B22 peptide with T3Q, K4A, K15D
modifications: not fully specified
B25: GFR-binding compound of SEQ ID NO: 67 (peptide)
peptide: B22 peptide with K15D
modifications: not fully specified
B26: GFR-binding compound of SEQ ID NO: 75 (peptide)
peptide: VPQALSPINMLYFNEKNQIIYGKIPFLQHNK
modifications: not fully specified
B27: GFR-binding compound of SEQ ID NO: 78 (peptide)
peptide: APTQLSAISTLYLEIVRKKPLKNYQEMEDH
modifications: not fully specified
B28: GFR-binding compound of SEQ ID NO: 71 (peptide)
peptide: TQVQLEPLTLLYYDENEKVIEQLSNDMVVE
modifications: not fully specified
B29: GFR-binding compound of SEQ ID NO: 91 (peptide)
peptide: SRVHHNAISTLYFDESSNVILKKYRGMSVVE
modifications: not fully specified
B30: GFR-binding compound of SEQ ID NO: 89 (peptide)
peptide: VPQALSPISILFIVGRKPKVYKQYEMIVERS
modifications: not fully specified
B31: GFR-binding compound of SEQ ID NO: 98 (peptide)
peptide: VSQDLSAISTLYLKIVRKEPLKNYQEMVEE
modifications: not fully specified
B32: GFR-binding compound of SEQ ID NO: 81 (peptide)
peptide: RNVQCRPTQLEPLPIVYYEIVRKKPEQLSNTLEDHLA
modifications: not fully specified
B33: GFR-binding compound of SEQ ID NO: 66 (peptide)
peptide: B32 peptide
modifications: not fully specified
B34: GFR-binding compound of SEQ ID NO: 64 (peptide)
peptide: NDEGLECVPTEERPVQVRKIRIKPHQGQKKATVFLQHNK
modifications: not fully specified
B35: GFR-binding compound of SEQ ID NO: 79 (peptide)
peptide: B34 peptide
modifications: not fully specified

Target: growth factor receptors
Test: cell-based or functional assay

| p-Smad1/5/8 (%) | Binder |
| --- | --- |
| 32% | B1 |
| 52% | B2 |
| 52% | B3 |
| 34% | B4 |
| 55% | B5 |
| 29% | B6 |
| 34% | B7 |
| 26% | B8 |
| 38% | B9 |
| 38% | B10 |
| 48% | B11 |
| 51% | B12 |
| 22% | B13 |
| 32% | B14 |
| 44% | B15 |
| 30% | B16 |
| 44% | B17 |
| 47% | B18 |

| p-Smad1/5/8 (%) | Binder |
| --- | --- |
| 36% | B19 |
| 41% | B20 |
| 46% | B21 |
| 35% | B22 |
| 33% | B23 |
| 39% | B24 |
| 40% | B25 |
| 54% | B26 |
| 58% | B27 |
| 47% | B28 |
| 56% | B29 |
| 41% | B30 |
| 39% | B31 |
| 41% | B32 |
| 38% | B33 |
| 36% | B34 |
| 27% | B35 |

Source: patent US20190224279A1, “PHARMACEUTICAL ASSOCIATION COMPRISING A GROWTH FACTOR RECEPTOR AGONIST CONJUGATED TO A BIOACTIVE CARRIER FOR CONVERTING A NEOPLASTIC CELL INTO A NON-NEOPLASTIC CELL AND USES THEREOF” (HISTIDE AG, priority 2015, published 2019)
